According to patent publication US12325747 (University of Texas, dated 2025):
Read-outs that look alike come from different tables or passages of the source.

Columns and labels:
[1] = target: T1, PD-L1 on CHO-PD-L1 cells (human, UniProt Q9NZQ7 19-290); assay: cell-based or functional assay
[2] = target: T2, Human PD-L1-Fc (human, UniProt Q9NZQ7 19-238); assay: ForteBio Octet BLI; IgG on AHQ sensors, 100 nM antigen; avid
T2 construct: also called Fc fusion antigen; not shown: Fc part, not described
Method: (§1) ForteBio K_D measurements—ForteBio affinity measurements were performed on an Octet RED384 generally as previously described (see, e.g., Estep et al., Mabs 5(2), 270-278 (2013)). Briefly, ForteBio affinity measurements were performed by loading IgGs on-line onto AHQ sensors. Sensors were equilibrated off-line in assay buffer for 30 min and then monitored on-line for 60 seconds for baseline establishment. Sensors with loaded IgGs were exposed to 100 nM antigen for 3 minutes, and afterwards were transferred to assay buffer for 3 min for off-rate measurement. For monovalent affinity assessment Fabs were used instead of IgGs. For this assessment the unbiotinylated Fc fusion antigen was loaded on-line onto the AHQ sensors. Sensors were equilibrated off-line in assay buffer for 30 min and then monitored on-line for 60 seconds for baseline establishment. Sensors with loaded antigen were exposed to 100 nM Fab for 3 minutes, and afterwards they were transferred to assay buffer for 3 min for off-rate measurement. All kinetics were analyzed using the 1:1 binding model.

[3] = target: Cyno PD-L1-Fc (cyno, UniProt G7PSE7 19-238); assay: as above
Method: as §1

[4] = target: T3, Mouse PD-L1-Fc (mouse, UniProt Q9EP73 19-238, limits assumed); assay: as above
T3 construct: not shown: Fc part, not described
Method: as §1

[5] = target: T4, Human PD-L1-HIS (human, UniProt Q9NZQ7 19-238); assay: Octet tandem competition on HIS-tagged human PD-L1; competitor Avelumab
T4 construct: also called HIS-tagged protein (human PD-L1)
Method: (§2) Epitope binning of PD-L1 antibodies. Binding specificity of a variety of PD-L1 antibodies were compared using a binding competition assay conducted using the ForteBio Octet® platform. Target HIS-tagged protein (human PD-L1) is loaded onto pre-charged Nickel NTA Biosensors at 1 μg/mL. The first Ab1 is saturated on the target-loaded biosensor at 100 nM, and a reference (bufer only) well is included to determine maximal Ab2 binding signal. The second Ab2 is screened for binding signal also at 100 nM, and Ab1 is included to determine background self-blocking signal. Data Analysis HT 9.0 software is used to generate a matrix of raw signal response of Ab2 binding that is then transformed to be expressed as a percentage of the unblocked Ab2 binding signal. Less than 15% response is considered competitive blocking.

[6] = target: T4, Human PD-L1-HIS; assay: Octet tandem competition on HIS-tagged human PD-L1; competitor Durvalumab
Method: as §2

[7] = target: T4, Human PD-L1-HIS; assay: Octet tandem competition on HIS-tagged human PD-L1; competitor Atezolizumab
Method: as §2

[8] = target: T2, Human PD-L1-Fc; assay: ForteBio Octet BLI (row ForteBio-KD); antigen and unit inferred, taken from Table 5
[9] = target: T1, PD-L1 on CHO-PD-L1 cells; assay: upper panel, MFI against Ab (nM): flow cytometry on CHO cells with PD-L1, anti-human IgG1-PE secondary. The panel has no title; human PD-L1 follows from paragraph 175 (all three bind human PD-L1)
Method: (§3) Antibody Activity. Varying concentrations of PD-L1 antibodies, with human IgG1 backbones, were added to CHO cells expressing either human or murine PD-L1 (CHO-PD-L1 cells). Binding was detected by addition of anti-human IgG1 secondary antibody conjugated to phycoerythrin. FACS analysis was performed, detecting phycoerythrin to determine fluorescence activity at a variety of antibody concentrations. EC50 was calculated using GraphPad Prism® software.

[10] = target: T5, mouse PD-L1 protein (mouse, UniProt Q9EP73 19-238, limits assumed); assay: lower panel, MFI against Ab (nM): flow cytometry on CHO cells with murine PD-L1, anti-human IgG1-PE secondary. The panel has no title; murine PD-L1 follows from paragraph 175 (only ADI-20227 binds murine PD-L1 well)
T5 construct: also called murine PD-L1
Method: as §3

[11] = target: T2, Human PD-L1-Fc; assay: ForteBio Octet BLI; Fc fusion antigen on AHQ sensors, 100 nM Fab; monovalent
Method: as §1

[12] = target: T1, PD-L1 on CHO-PD-L1 cells; assay: cell-based or functional assay; remark: listed apart in the source
[13] = target: T4, Human PD-L1-HIS; assay: ForteBio Octet BLI; IgG on AHQ sensors, 100 nM antigen; column head says Avid
Method: as §1

[14] = target: T1, PD-L1 on CHO-PD-L1 cells; assay: cell-based or functional assay; remark: listed apart in the source
[15] = target: T5, mouse PD-L1 protein; assay: lower panel, MFI against Ab (nM): flow cytometry on CHO cells with murine PD-L1. The panel has no title; murine PD-L1 follows from paragraph 175
Method: as §3

T3 sequence (Q9EP73 19-238 limits assumed): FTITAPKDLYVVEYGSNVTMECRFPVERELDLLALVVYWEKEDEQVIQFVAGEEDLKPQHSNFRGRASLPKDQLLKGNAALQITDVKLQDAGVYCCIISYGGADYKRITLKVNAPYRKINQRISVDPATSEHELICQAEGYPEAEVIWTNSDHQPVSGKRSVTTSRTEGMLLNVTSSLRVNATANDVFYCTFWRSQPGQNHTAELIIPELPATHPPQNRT
Cyno PD-L1-Fc, sequence (G7PSE7 entry or part of it limits assumed): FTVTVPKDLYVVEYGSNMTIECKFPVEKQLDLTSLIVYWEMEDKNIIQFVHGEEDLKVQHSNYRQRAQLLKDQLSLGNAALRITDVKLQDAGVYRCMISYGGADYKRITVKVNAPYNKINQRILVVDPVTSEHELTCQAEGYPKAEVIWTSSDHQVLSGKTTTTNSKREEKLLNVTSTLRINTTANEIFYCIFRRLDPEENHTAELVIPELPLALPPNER
T2 sequence (Q9NZQ7 19-238 limits assumed): as the sequence (G7PSE7 entry or part of it limits assumed) above, with T33A, S34A, N62S, Q68R, R82Q, L173F, A185T, I192T, L215H counted along it
T4 sequence (Q9NZQ7 19-238 limits assumed): as the sequence (G7PSE7 entry or part of it limits assumed) above, with T33A, S34A, N62S, Q68R, R82Q, L173F, A185T, I192T, L215H counted along it
T1 sequence (Q9NZQ7 19-290 limits assumed): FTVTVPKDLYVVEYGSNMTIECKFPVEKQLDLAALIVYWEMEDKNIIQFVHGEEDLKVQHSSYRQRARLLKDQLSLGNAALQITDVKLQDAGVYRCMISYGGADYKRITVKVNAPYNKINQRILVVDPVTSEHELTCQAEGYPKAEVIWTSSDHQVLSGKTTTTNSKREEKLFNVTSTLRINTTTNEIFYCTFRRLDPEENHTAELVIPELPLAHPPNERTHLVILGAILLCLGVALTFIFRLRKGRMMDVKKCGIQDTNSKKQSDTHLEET
T5 sequence (Q9EP73 19-238 limits assumed): as the sequence (Q9EP73 19-238 limits assumed) above

B1: ADI-20227 (antibody, human IgG1, V domains shown)
VH: QVQLQESGPGLVKPSQTLSLTCTVSGGSIVSGGLYWSWIRQHPGKGLEWIGYIYYAGVTYYNPSLKSRVTISVDTSKNQFSLKLSSVTAADTAVYYCARGPRMGLAGMDVWGQGTTVTVSS
VL: DIQMTQSPSSVSASVGDRVTITCRASQGISSWLAWYQQKPGKAPKLLIYAASSLQSGVPSRFSGSGSGTDFTLTISSLQPEDFATYYCQQANSFPITFGGGTKVEIK
notes: Tested as IgG; also called PD-L1-C1-2; clone family cLC
B1 was tested, and the “EC50 for restoration of PD-L1:PD-1 repressed Jurkat T cell activity (row label IC50)” value [1] was 0.295 nM, the Kd [2] was 0.179 nM and the Kd [3] was 0.192 nM. For the same binder, the Kd [4] was 0.101 nM, the “percentage of the unblocked Ab2 binding signal” value (from here on “percentage”) [5] was 0.37% and the “percentage” value [6] was 0.65%. The “percentage” value [7] was -0.52%, the Kd [8] was 0.179 nM and the EC50 [9] was 1.12 nM. The EC50 [10] was 1.13 nM.

B2: ADI-20227 Fab (Fab, V domains shown)
VH: B1 VH
VL: B1 VL
B2 was tested, and the Kd [11] was 0.915 nM.

B3: ADI-20803 (antibody, human IgG1, V domains shown)
VH: QVQLVQSGAEVKKPGSSVKVSCKASGGTFRLYAISWVRQAPGQGLEWMGSIIPGFGSANYAQKFQGRVTITADESTSTAYMELSSLRSEDTAVYYCARDGGGGTSAYSFDPWGQGTLVTVSS
VL: EIVLTQSPATLSLSPGERATLSCRASQSVSSYLAWYQQKPGQAPRLLIYDASNRATGIPARFSGSGSGTDFTLTISSLEPEDFAVYYCQQSINFPYTFGGGTKVEIK
notes: Tested as IgG; also called PDL1-1-12; PLD1-1-12
B3 was tested, and the “EC50 (read off the curve)” value [12] was about 3 nM, the Kd [2] was 0.188 nM and the Kd [3] was 0.196 nM. The Kd [4] was 5.65 nM, the “percentage” value [5] was 3.14% and the “percentage” value [6] was 2.38%. For the same binder, the “percentage” value [7] was 1.86%, the Kd [13] was 0.0092 nM and the EC50 [9] was 0.7 nM.

B4: ADI-20803 Fab (Fab, V domains shown)
VH: B3 VH
VL: B3 VL
notes: also called Fab of ADI-20803
Binder B4 has a Kd [11] of 0.226 nM.

B5: ADI-16403 (antibody, human IgG1, V domains shown)
VH: EVQLVESGGGLVQPGGSLRLSCAASGFTFSSYWMSWVRQAPGKGLEWVANIKSDGSEKYYVDSVKGRFTISRDNAKNSLYLQMNSLRAEDTAVYYCARVTYWADYMDVWGKGTTVTVSS
VL: DIQMTQSPSTLSASVGDRVTITCRASQSISSWLAWYQQKPGKAPKLLIYKASSLESGVPSRFSGSGSGTEFTLTISSLQPDDFATYYCQQSGSLPPTFGGGTKVEIK
notes: Tested as IgG; also called PD-L1-31; clone family 35
For B5, the “EC50 (read off the curve)” value [14] was about 2 nM, the Kd [2] was 0.317 nM and the Kd [3] was 0.792 nM. The binding result [4] was “no binding (tested: 100 nM)”, the “percentage” value [5] was 2.39% and the “percentage” value [6] was 1.03%. The “percentage” value [7] was 0.75% and the Kd [13] was 0.328 nM.

B6: ADI-16403 Fab (Fab, V domains shown)
VH: B5 VH
VL: B5 VL
notes: also called Fab of ADI-16403
For B6, the Kd [11] was 0.935 nM.

B7: ADI-20799 (antibody, human IgG1, V domains shown)
VH: QVQLVQSGAEVKKPGASVKVSCKASGYTFTGVYMHWVRQAPGQGLEWMGGIFPIGGTANYAQKFQGRVTITADESTSTAYMELSSLRSEDTAVYYCARDRTSGALYWGQGTLVTVSS
VL: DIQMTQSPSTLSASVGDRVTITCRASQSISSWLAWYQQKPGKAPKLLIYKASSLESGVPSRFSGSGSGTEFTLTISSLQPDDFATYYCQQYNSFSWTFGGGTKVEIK
In the case of B7, the “EC50 (read off the curve)” value [14] is reported as about 0.5 nM, the binding result [15] is reported as “no binding (tested: about 700 nM)” and the EC50 [9] is reported as 1.31 nM.
